Here are results for 1 molecule from article PMC11677236, “TIPE drives a cancer stem-like phenotype by promoting glycolysis via PKM2/HIF-1α axis in melanoma” (eLife, 2024).

The target in the assay is T1, GST-tagged PKM2 (UniProt P14618 1-531).
T1 construct: Pyruvate kinase isoform M2 (PKM2); also called GST-PKM2; source: purified
As to the kind of experiment: pull-down; GST-pull down in vitro using purified GST-tagged PKM2 and TIPE-HA. The conditions noted are these: both partners purified.

T1 sequence (P14618 whole entry, canonical isoform): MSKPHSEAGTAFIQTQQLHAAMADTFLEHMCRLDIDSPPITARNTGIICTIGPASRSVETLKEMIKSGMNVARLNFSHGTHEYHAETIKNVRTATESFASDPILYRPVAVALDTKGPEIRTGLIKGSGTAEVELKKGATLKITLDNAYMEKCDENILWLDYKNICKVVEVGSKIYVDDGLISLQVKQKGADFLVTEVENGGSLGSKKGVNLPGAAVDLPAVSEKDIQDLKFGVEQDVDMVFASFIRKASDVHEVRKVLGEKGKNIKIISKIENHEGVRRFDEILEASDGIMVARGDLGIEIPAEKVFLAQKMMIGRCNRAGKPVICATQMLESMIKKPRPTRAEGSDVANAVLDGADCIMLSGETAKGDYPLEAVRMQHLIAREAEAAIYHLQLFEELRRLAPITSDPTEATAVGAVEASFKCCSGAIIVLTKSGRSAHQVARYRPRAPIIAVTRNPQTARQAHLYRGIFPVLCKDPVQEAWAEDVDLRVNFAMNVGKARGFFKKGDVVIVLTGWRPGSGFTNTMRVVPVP

B1: TIPE-HA used in the GST-pull down assay (natural protein, UniProt O95379 1-198, looked up)
chain: MHSEAEESKEVATDVFNSKNLAVQAQKKILGKMVSKSIATTLIDDTSSEVLDELYRVTREYTQNKKEAEKIIKNLIKTVIKLAILYRNNQFNQDELALMEKFKKKVHQLAMTVVSFHQVDYTFDRNVLSRLLNECREMLHQIIQRHLTAKSHGRVNNVFDHFSDCEFLAALYNPFGNFKPHLQKLCDGINKMLDEENI
notes: TIPE (TNFAIP8); The legend says 'using purified GST-tagged PKM2 and TIPE-HA'; It may be the same construct as m3
On to B1, for which the binding result was “binds”.
